Measurements: patent US20140087995A1 (published 2014)
Numbered stars: 1 amine (or outer) side, 2 acyl side, 3 side chain; on linkers, the order of the positions; unused ones are H or OH. Bridge positions count the residues as written; N and C are the ends. Side chains are listed from the residue outwards. Ends that are not written are not given here. * marks the point of attachment. C20 diacid = O=C(O)CCCCCCCCCCCCCCCCCCC(=O)*; γGlu = O=C(O)[C@H](CCC(=O)[*:2])N[*:1]

T1: human amylin receptor (amylin 3(a) receptor: human calcitonin receptor with RAMP-3) (human, UniProt P30988 25-474; O60896 24-148)
T1 construct: whole, on cells; also called hAmylin-R; hAmylinR
T1 sequence (looked up) 1: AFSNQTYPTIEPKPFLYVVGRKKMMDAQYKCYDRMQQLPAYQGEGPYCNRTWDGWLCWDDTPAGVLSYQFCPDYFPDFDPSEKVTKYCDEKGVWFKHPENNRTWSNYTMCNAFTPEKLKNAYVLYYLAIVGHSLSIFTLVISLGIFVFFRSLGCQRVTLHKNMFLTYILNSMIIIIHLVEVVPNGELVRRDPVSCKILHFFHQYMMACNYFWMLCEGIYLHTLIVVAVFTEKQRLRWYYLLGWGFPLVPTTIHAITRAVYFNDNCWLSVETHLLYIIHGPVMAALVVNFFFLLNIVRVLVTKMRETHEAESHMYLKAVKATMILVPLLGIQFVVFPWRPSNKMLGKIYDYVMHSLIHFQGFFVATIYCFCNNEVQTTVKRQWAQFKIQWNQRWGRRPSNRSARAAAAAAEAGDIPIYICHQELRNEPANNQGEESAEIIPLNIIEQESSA
T1 sequence (looked up) 2: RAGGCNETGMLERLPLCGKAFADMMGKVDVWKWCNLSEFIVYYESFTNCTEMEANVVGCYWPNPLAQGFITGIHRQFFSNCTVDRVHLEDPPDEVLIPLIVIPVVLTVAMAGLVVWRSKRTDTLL

B1: N^ε1-[(4S)-4-carboxy-4-[[(4S)-4-carboxy-4-(19-carboxynonadecanoylamino)butanoyl]amino]butanoyl]-[Asp14,Arg17,Pro21,Pro27,Asp35]-h-amylin (peptide)
peptide: K([γGlu-γGlu-C20 diacid])CNTATCATQRLADFLRHSSPNFGAIPSSTNVGSDTY-NH2
modifications: disulfide 2-7; N-terminus assumed
SMILES: CC[C@H](C)[C@H](NC(=O)[C@H](C)NC(=O)CNC(=O)[C@H](Cc1ccccc1)NC(=O)[C@H](CC(N)=O)NC(=O)[C@@H]1CCCN1C(=O)[C@H](CO)NC(=O)[C@H](CO)NC(=O)[C@H](Cc1c[nH]cn1)NC(=O)[C@H](CCCNC(=N)N)NC(=O)[C@H](CC(C)C)NC(=O)[C@H](Cc1ccccc1)NC(=O)[C@H](CC(=O)O)NC(=O)[C@H](C)NC(=O)[C@H](CC(C)C)NC(=O)[C@H](CCCNC(=N)N)NC(=O)[C@H](CCC(N)=O)NC(=O)[C@@H](NC(=O)[C@H](C)NC(=O)[C@@H]1CSSC[C@H](NC(=O)[C@@H](N)CCCCNC(=O)CC[C@H](NC(=O)CC[C@H](NC(=O)CCCCCCCCCCCCCCCCCCC(=O)O)C(=O)O)C(=O)O)C(=O)N[C@@H](CC(N)=O)C(=O)N[C@@H]([C@@H](C)O)C(=O)N[C@@H](C)C(=O)N[C@@H]([C@@H](C)O)C(=O)N1)[C@@H](C)O)C(=O)N1CCC[C@H]1C(=O)N[C@@H](CO)C(=O)N[C@@H](CO)C(=O)N[C@H](C(=O)N[C@@H](CC(N)=O)C(=O)N[C@H](C(=O)NCC(=O)N[C@@H](CO)C(=O)N[C@@H](CC(=O)O)C(=O)N[C@H](C(=O)N[C@@H](Cc1ccc(O)cc1)C(N)=O)[C@@H](C)O)C(C)C)[C@@H](C)O
notes: also called compound 2
B2: N^ε1-[(4S)-4-carboxy-4-[[(4S)-4-carboxy-4-(19-carboxynonadecanoylamino)butanoyl]amino]butanoyl]-[Glu14,Arg17,Pro21,Pro27,Arg34]-h-amylin (peptide)
peptide: K([γGlu-γGlu-C20 diacid])CNTATCATQRLAEFLRHSSPNFGAIPSSTNVGRNTY-NH2
modifications: disulfide 2-7; N-terminus assumed
SMILES: CC[C@H](C)[C@H](NC(=O)[C@H](C)NC(=O)CNC(=O)[C@H](Cc1ccccc1)NC(=O)[C@H](CC(N)=O)NC(=O)[C@@H]1CCCN1C(=O)[C@H](CO)NC(=O)[C@H](CO)NC(=O)[C@H](Cc1c[nH]cn1)NC(=O)[C@H](CCCNC(=N)N)NC(=O)[C@H](CC(C)C)NC(=O)[C@H](Cc1ccccc1)NC(=O)[C@H](CCC(=O)O)NC(=O)[C@H](C)NC(=O)[C@H](CC(C)C)NC(=O)[C@H](CCCNC(=N)N)NC(=O)[C@H](CCC(N)=O)NC(=O)[C@@H](NC(=O)[C@H](C)NC(=O)[C@@H]1CSSC[C@H](NC(=O)[C@@H](N)CCCCNC(=O)CC[C@H](NC(=O)CC[C@H](NC(=O)CCCCCCCCCCCCCCCCCCC(=O)O)C(=O)O)C(=O)O)C(=O)N[C@@H](CC(N)=O)C(=O)N[C@@H]([C@@H](C)O)C(=O)N[C@@H](C)C(=O)N[C@@H]([C@@H](C)O)C(=O)N1)[C@@H](C)O)C(=O)N1CCC[C@H]1C(=O)N[C@@H](CO)C(=O)N[C@@H](CO)C(=O)N[C@H](C(=O)N[C@@H](CC(N)=O)C(=O)N[C@H](C(=O)NCC(=O)N[C@@H](CCCNC(=N)N)C(=O)N[C@@H](CC(N)=O)C(=O)N[C@H](C(=O)N[C@@H](Cc1ccc(O)cc1)C(N)=O)[C@@H](C)O)C(C)C)[C@@H](C)O
notes: also called 88; compound 88
B3: N^ε1-[(4S)-4-carboxy-4-[[(4S)-4-carboxy-4-(19-carboxynonadecanoylamino)butanoyl]amino]butanoyl]-[Glu14,Arg17,Pro21,Pro27,Pro37]-h-amylin (peptide)
peptide: K([γGlu-γGlu-C20 diacid])CNTATCATQRLAEFLRHSSPNFGAIPSSTNVGSNTP-NH2
modifications: disulfide 2-7; N-terminus assumed
SMILES: CC[C@H](C)[C@H](NC(=O)[C@H](C)NC(=O)CNC(=O)[C@H](Cc1ccccc1)NC(=O)[C@H](CC(N)=O)NC(=O)[C@@H]1CCCN1C(=O)[C@H](CO)NC(=O)[C@H](CO)NC(=O)[C@H](Cc1c[nH]cn1)NC(=O)[C@H](CCCNC(=N)N)NC(=O)[C@H](CC(C)C)NC(=O)[C@H](Cc1ccccc1)NC(=O)[C@H](CCC(=O)O)NC(=O)[C@H](C)NC(=O)[C@H](CC(C)C)NC(=O)[C@H](CCCNC(=N)N)NC(=O)[C@H](CCC(N)=O)NC(=O)[C@@H](NC(=O)[C@H](C)NC(=O)[C@@H]1CSSC[C@H](NC(=O)[C@@H](N)CCCCNC(=O)CC[C@H](NC(=O)CC[C@H](NC(=O)CCCCCCCCCCCCCCCCCCC(=O)O)C(=O)O)C(=O)O)C(=O)N[C@@H](CC(N)=O)C(=O)N[C@@H]([C@@H](C)O)C(=O)N[C@@H](C)C(=O)N[C@@H]([C@@H](C)O)C(=O)N1)[C@@H](C)O)C(=O)N1CCC[C@H]1C(=O)N[C@@H](CO)C(=O)N[C@@H](CO)C(=O)N[C@H](C(=O)N[C@@H](CC(N)=O)C(=O)N[C@H](C(=O)NCC(=O)N[C@@H](CO)C(=O)N[C@@H](CC(N)=O)C(=O)N[C@H](C(=O)N1CCC[C@H]1C(N)=O)[C@@H](C)O)C(C)C)[C@@H](C)O
notes: also called 13; compound 13
B4: N^ε1-[(4S)-4-carboxy-4-[[(4S)-4-carboxy-4-(19-carboxynonadecanoylamino)butanoyl]amino]butanoyl]-[Glu14,Arg17,Pro21,Pro27,His34]-h-amylin (peptide)
peptide: K([γGlu-γGlu-C20 diacid])CNTATCATQRLAEFLRHSSPNFGAIPSSTNVGHNTY-NH2
modifications: disulfide 2-7; N-terminus assumed
SMILES: CC[C@H](C)[C@H](NC(=O)[C@H](C)NC(=O)CNC(=O)[C@H](Cc1ccccc1)NC(=O)[C@H](CC(N)=O)NC(=O)[C@@H]1CCCN1C(=O)[C@H](CO)NC(=O)[C@H](CO)NC(=O)[C@H](Cc1c[nH]cn1)NC(=O)[C@H](CCCNC(=N)N)NC(=O)[C@H](CC(C)C)NC(=O)[C@H](Cc1ccccc1)NC(=O)[C@H](CCC(=O)O)NC(=O)[C@H](C)NC(=O)[C@H](CC(C)C)NC(=O)[C@H](CCCNC(=N)N)NC(=O)[C@H](CCC(N)=O)NC(=O)[C@@H](NC(=O)[C@H](C)NC(=O)[C@@H]1CSSC[C@H](NC(=O)[C@@H](N)CCCCNC(=O)CC[C@H](NC(=O)CC[C@H](NC(=O)CCCCCCCCCCCCCCCCCCC(=O)O)C(=O)O)C(=O)O)C(=O)N[C@@H](CC(N)=O)C(=O)N[C@@H]([C@@H](C)O)C(=O)N[C@@H](C)C(=O)N[C@@H]([C@@H](C)O)C(=O)N1)[C@@H](C)O)C(=O)N1CCC[C@H]1C(=O)N[C@@H](CO)C(=O)N[C@@H](CO)C(=O)N[C@H](C(=O)N[C@@H](CC(N)=O)C(=O)N[C@H](C(=O)NCC(=O)N[C@@H](Cc1c[nH]cn1)C(=O)N[C@@H](CC(N)=O)C(=O)N[C@H](C(=O)N[C@@H](Cc1ccc(O)cc1)C(N)=O)[C@@H](C)O)C(C)C)[C@@H](C)O
notes: also called 87; compound 87
B5: N^ε1-[(4S)-4-carboxy-4-[[(4S)-4-carboxy-4-(19-carboxynonadecanoylamino)butanoyl]amino]butanoyl]-[Glu14,Arg17,Pro21,Pro27,Arg35]-h-amylin (peptide)
peptide: K([γGlu-γGlu-C20 diacid])CNTATCATQRLAEFLRHSSPNFGAIPSSTNVGSRTY-NH2
modifications: disulfide 2-7; N-terminus assumed
SMILES: CC[C@H](C)[C@H](NC(=O)[C@H](C)NC(=O)CNC(=O)[C@H](Cc1ccccc1)NC(=O)[C@H](CC(N)=O)NC(=O)[C@@H]1CCCN1C(=O)[C@H](CO)NC(=O)[C@H](CO)NC(=O)[C@H](Cc1c[nH]cn1)NC(=O)[C@H](CCCNC(=N)N)NC(=O)[C@H](CC(C)C)NC(=O)[C@H](Cc1ccccc1)NC(=O)[C@H](CCC(=O)O)NC(=O)[C@H](C)NC(=O)[C@H](CC(C)C)NC(=O)[C@H](CCCNC(=N)N)NC(=O)[C@H](CCC(N)=O)NC(=O)[C@@H](NC(=O)[C@H](C)NC(=O)[C@@H]1CSSC[C@H](NC(=O)[C@@H](N)CCCCNC(=O)CC[C@H](NC(=O)CC[C@H](NC(=O)CCCCCCCCCCCCCCCCCCC(=O)O)C(=O)O)C(=O)O)C(=O)N[C@@H](CC(N)=O)C(=O)N[C@@H]([C@@H](C)O)C(=O)N[C@@H](C)C(=O)N[C@@H]([C@@H](C)O)C(=O)N1)[C@@H](C)O)C(=O)N1CCC[C@H]1C(=O)N[C@@H](CO)C(=O)N[C@@H](CO)C(=O)N[C@H](C(=O)N[C@@H](CC(N)=O)C(=O)N[C@H](C(=O)NCC(=O)N[C@@H](CO)C(=O)N[C@@H](CCCNC(=N)N)C(=O)N[C@H](C(=O)N[C@@H](Cc1ccc(O)cc1)C(N)=O)[C@@H](C)O)C(C)C)[C@@H](C)O
notes: also called 89; compound 89
B6: N^ε1-[(4S)-4-carboxy-4-[[(4S)-4-carboxy-4-(19-carboxynonadecanoylamino)butanoyl]amino]butanoyl]-[Asp14,Arg17,Pro22,Pro26,Asp35]-h-amylin (peptide)
peptide: K([γGlu-γGlu-C20 diacid])CNTATCATQRLADFLRHSSNPFGAPLSSTNVGSDTY-NH2
modifications: disulfide 2-7; N-terminus assumed
SMILES: CC(C)C[C@H](NC(=O)[C@H](CCCNC(=N)N)NC(=O)[C@H](CCC(N)=O)NC(=O)[C@@H](NC(=O)[C@H](C)NC(=O)[C@@H]1CSSC[C@H](NC(=O)[C@@H](N)CCCCNC(=O)CC[C@H](NC(=O)CC[C@H](NC(=O)CCCCCCCCCCCCCCCCCCC(=O)O)C(=O)O)C(=O)O)C(=O)N[C@@H](CC(N)=O)C(=O)N[C@@H]([C@@H](C)O)C(=O)N[C@@H](C)C(=O)N[C@@H]([C@@H](C)O)C(=O)N1)[C@@H](C)O)C(=O)N[C@@H](C)C(=O)N[C@@H](CC(=O)O)C(=O)N[C@@H](Cc1ccccc1)C(=O)N[C@@H](CC(C)C)C(=O)N[C@@H](CCCNC(=N)N)C(=O)N[C@@H](Cc1c[nH]cn1)C(=O)N[C@@H](CO)C(=O)N[C@@H](CO)C(=O)N[C@@H](CC(N)=O)C(=O)N1CCC[C@H]1C(=O)N[C@@H](Cc1ccccc1)C(=O)NCC(=O)N[C@@H](C)C(=O)N1CCC[C@H]1C(=O)N[C@@H](CC(C)C)C(=O)N[C@@H](CO)C(=O)N[C@@H](CO)C(=O)N[C@H](C(=O)N[C@@H](CC(N)=O)C(=O)N[C@H](C(=O)NCC(=O)N[C@@H](CO)C(=O)N[C@@H](CC(=O)O)C(=O)N[C@H](C(=O)N[C@@H](Cc1ccc(O)cc1)C(N)=O)[C@@H](C)O)C(C)C)[C@@H](C)O
notes: also called compound 3

target: T1, human amylin receptor (amylin 3(a) …); assay: SPA displacement of 125I-rat amylin, hAmylin 3(a) receptor membranes
In short: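 One-site competition analysis of SPA counts yielded IC₅₀ as a measure of affinity. Membranes were at 35 ng/μL final; incubation was 120 min at 25° C, pH 7.4.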

IC50 [pM]	Binder
411	B1
750	B2
264	B3
633	B4
1160	B5
1130	B6
